For experiment [1], the target named is T1, purified recombinant human CD8 protein (human, UniProt P01732 22-182, limits assumed).
T1 construct: also called rhCD8; hCD8
Kind of experiment: ELISA, plate coated with rhCD8, transfection supernatant at 0.5 µg/ml and serially diluted, HRP goat anti-human IgG (Fc-specific), TMB, 405 nm. On the procedure:
(§1) The concentration of the variants UAb_Mb1b_CD8, and IAb_Mb1a_CD8 were normalized to […] the concentration of IAb_MB2a_CD8 (0.5 μg/ml) based on the quantitative ELISA.
(§2) 96 well plates were coated with rhCD8 antigen and incubated with supernatants obtained from the transient transfection. Binding was detected with HRP-conjugated goat anti-human (Fc-specific) IgG and TMB substrate. The absorbance measured at 405 nm. Dilutions were done in triplicate. Data is shown as mean of relative absorbance.
For orientation: In an ELISA, binding on a coated surface is turned into a signal by an enzyme label.

Experiment [2] addresses T1, purified recombinant human CD8 protein. The experiment can be described thus: ELISA, plate coated with rhCD8, transfection supernatant serially diluted from 0.5 µg/ml, HRP goat anti-human IgG (Fc-specific), TMB, 405 nm. The method, then:
as §1, §2

The values below come from patent US20170029507A1 (IMAGINAB, published 2017).

T1 sequence (P01732 22-182 limits assumed): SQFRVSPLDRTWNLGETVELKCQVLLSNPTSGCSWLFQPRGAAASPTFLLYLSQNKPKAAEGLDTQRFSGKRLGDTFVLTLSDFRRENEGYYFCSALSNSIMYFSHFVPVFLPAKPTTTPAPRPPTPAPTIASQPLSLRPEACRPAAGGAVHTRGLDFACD

B1: IAb_Mb2a_CD8 (other)
chain: EVQLVESGGGLVQPGGSLRLSCAASGFNIKDTYIHFVRQAPGKGLEWIGRIDPANDNTLYASKFQGKATISADTSKNTAYLQMNSLRAGDTAVYYCGRGYGYYVFDHWGQGTLVTVSSGSTSGGGSGGGSGGGGSSDVQITQSPSSLSASVGDRVTITCRTSRSISQYLAWYQQKPGKVPKLLIYSGSTLQSGVPSRFSGSGSGTDFTLTISSLQPEDVATYYCQQHNENPLTFGGGTKVEIKEPKSCDKTHTCPPCGGGSSGGGSGGQPREPQVYTLPPSRDELTKNQVSLTCLVKGFYPSDIAVEWESNGQPENNYKTTPPVLDSDGSFFLYSKLTVDKSRWQQGNVFSCSVMHEALHNHYTQKSLSLSPGK
notes: Tested as CHO-K1 transfection supernatant; also called variant 2a
The term EC50 (read off the curve) denotes the concentration at which the effect is half-maximal. With B1, in experiment [1], the “EC50 (read off the curve)” value is around 0.02 µg/mL.

B2: IAb_Mb2c_CD8 (other)
chain: QVQLVQSGAEVKKPGATVKISCKVSGFNIKDTYIHFVQQAPGKGLEWIGRIDPANDNTLYASKFQGKATITADTSTDTAYMELSSLRSGDTAVYYCGRGYGYYVFDHWGQGTLVTVSSGSTSGGGSGGGSGGGGSSDVQITQSPSSLSASVGDRVTITCRTSRSISQYLAWYQQKPGKVPKLLIYSGSTLQSGVPSRFSGSGSGTDFTLTISSLQPEDVATYYCQQHNENPLTFGGGTKVEIKEPKSCDKTHTCPPCGGGSSGGGSGGQPREPQVYTLPPSRDELTKNQVSLTCLVKGFYPSDIAVEWESNGQPENNYKTTPPVLDSDGSFFLYSKLTVDKSRWQQGNVFSCSVMHEALHNHYTQKSLSLSPGK
notes: Tested as CHO-K1 transfection supernatant; also called variant 2c
Regarding B2, the “EC50 (read off the curve)” value in experiment [2] is around 0.04 µg/mL.
